Measured values as given in patent publication US20130078251A1 (Hoffmann-La Roche, published 2013).

T1: recombinant D3 domain of MCSP (UniProt Q6UVK1 1582-2224, limits assumed)
T1 construct: domain: D3 domain; also called MCSP D3
T1 sequence (looked up): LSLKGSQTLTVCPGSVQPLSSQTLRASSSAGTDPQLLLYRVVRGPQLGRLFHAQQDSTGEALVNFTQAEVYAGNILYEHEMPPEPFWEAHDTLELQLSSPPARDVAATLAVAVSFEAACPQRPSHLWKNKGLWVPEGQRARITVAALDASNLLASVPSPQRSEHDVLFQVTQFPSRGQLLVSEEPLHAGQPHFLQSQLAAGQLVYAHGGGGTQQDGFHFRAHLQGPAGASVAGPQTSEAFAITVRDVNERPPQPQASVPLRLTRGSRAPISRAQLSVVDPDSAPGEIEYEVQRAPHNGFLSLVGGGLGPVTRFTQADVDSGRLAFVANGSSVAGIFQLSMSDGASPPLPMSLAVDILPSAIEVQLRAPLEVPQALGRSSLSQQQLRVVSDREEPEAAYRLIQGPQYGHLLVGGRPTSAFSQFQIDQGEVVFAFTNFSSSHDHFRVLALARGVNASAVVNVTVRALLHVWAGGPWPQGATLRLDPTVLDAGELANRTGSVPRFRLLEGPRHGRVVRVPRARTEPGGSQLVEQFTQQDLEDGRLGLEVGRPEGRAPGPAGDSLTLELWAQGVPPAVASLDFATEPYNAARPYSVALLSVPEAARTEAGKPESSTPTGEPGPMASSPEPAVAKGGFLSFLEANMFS

T2: cynomolgus MCSP D3 domain expression construct (cynomolgus, UniProt Q6UVK1 1582-2224 (human entry), limits assumed)
T2 construct: also called cynomolgus construct; cynomolgus antigen
T2 chain: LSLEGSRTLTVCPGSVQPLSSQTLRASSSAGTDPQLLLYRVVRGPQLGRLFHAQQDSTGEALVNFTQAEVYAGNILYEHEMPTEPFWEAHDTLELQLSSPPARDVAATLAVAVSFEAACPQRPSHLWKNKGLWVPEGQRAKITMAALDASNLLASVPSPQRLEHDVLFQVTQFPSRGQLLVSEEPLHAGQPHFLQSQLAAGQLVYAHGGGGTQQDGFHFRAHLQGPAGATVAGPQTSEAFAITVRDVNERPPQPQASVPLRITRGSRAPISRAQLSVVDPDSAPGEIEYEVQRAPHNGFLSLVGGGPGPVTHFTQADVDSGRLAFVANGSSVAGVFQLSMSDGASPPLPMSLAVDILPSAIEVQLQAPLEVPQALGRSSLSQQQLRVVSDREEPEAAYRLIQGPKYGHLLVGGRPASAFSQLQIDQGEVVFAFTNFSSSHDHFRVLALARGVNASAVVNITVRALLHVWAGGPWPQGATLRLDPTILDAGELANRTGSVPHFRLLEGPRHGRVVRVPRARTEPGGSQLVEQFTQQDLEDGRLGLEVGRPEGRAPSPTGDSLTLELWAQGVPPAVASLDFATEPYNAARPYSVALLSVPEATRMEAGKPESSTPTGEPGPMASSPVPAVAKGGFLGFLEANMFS

T3: human MCSP D3 domain expression construct (human, UniProt Q6UVK1 1582-2224, limits assumed)
T3 construct: Built like the cynomolgus construct (signal peptide, N-terminal FLAG-tag); also called corresponding human expression construct; human counterpart
T3 sequence: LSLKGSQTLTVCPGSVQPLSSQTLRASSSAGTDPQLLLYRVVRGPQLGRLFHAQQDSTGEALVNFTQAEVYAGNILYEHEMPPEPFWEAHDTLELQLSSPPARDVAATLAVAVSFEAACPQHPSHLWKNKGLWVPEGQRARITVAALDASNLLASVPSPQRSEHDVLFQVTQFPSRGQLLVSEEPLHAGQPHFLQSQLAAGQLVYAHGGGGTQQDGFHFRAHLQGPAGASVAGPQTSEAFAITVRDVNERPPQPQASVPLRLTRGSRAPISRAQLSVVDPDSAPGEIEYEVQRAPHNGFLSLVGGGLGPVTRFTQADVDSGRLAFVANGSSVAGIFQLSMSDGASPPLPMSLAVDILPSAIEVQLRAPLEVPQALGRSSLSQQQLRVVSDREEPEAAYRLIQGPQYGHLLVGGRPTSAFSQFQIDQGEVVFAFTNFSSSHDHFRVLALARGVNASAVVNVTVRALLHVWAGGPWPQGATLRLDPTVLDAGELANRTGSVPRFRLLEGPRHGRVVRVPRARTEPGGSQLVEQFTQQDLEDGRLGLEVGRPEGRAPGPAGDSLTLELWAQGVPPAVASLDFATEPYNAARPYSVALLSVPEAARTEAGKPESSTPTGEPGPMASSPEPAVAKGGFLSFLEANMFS

T4: Construct 1, CSPG repeat 15 of human MCSP with the original transmembrane region (human, UniProt Q6UVK1 2044-2246)
T4 construct: Expressed on HEK-EBNA cells; also called construct including only the MCSP repeat 15 and the natural transmembrane domain
T4 sequence: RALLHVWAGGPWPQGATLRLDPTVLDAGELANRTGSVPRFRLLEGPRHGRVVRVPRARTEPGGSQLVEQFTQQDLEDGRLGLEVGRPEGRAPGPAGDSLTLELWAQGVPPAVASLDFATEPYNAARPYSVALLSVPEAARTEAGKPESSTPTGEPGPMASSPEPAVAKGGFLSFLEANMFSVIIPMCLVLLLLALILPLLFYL

T5: Construct 4, CSPG repeat 12-15 of human MCSP with the original transmembrane region (human, UniProt Q6UVK1 1702-2246)
T5 construct: Expressed on HEK-EBNA cells
T5 sequence: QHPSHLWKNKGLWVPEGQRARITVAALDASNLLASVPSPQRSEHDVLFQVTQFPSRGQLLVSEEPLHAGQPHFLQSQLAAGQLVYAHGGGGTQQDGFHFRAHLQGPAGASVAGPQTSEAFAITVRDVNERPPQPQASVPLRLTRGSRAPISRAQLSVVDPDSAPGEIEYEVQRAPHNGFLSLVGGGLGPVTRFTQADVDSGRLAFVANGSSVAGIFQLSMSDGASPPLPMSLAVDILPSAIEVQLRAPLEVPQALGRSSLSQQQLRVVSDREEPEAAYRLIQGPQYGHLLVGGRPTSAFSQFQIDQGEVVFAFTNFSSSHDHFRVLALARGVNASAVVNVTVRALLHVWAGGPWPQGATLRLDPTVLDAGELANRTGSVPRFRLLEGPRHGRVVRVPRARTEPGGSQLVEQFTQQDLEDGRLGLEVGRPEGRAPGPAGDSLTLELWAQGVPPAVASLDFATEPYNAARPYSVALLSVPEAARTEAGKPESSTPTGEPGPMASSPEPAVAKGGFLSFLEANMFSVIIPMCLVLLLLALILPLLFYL

B1: humanized variant M4-3 ML2 (antibody, human IgG1, kappa, V domains shown)
VH: QVQLQESGPGLVKPSQTLSLTCTVSGGSITSGYYWNWIRQHPGKGLEWIGYITYDGSNNYNPSLKSRVTISRDTSKNQFSLKLSSVTAADTAVYYCADFDYWGQGTLVTVSS
VL: DIQMTQSPSSLSASVGDRVTITCRASQGIRNYLNWYQQKPGKAPKLLIYYTSSLHSGVPSRFSGSGSGTDFTLTISSLQPEDFATYYCQQYSKLPWTFGQGTKVEIKR
notes: also called M4-3 ML2 antibody
B2: chimeric antibody LC007 (antibody, human IgG1, kappa, V domains shown)
VH: EVQLQESGPGLVKPSQSLSLTCSVTGYSITSGYYWNWIRQFPGNKLEWMGYITYDGSNNYNPSLKNRISITRDTSKNQFFLKLNSVTTEDTATYYCADFDYWGQGTTLTVSS
VL: DIVLTQSPSSLSASLGDRVTISCSASQGIRNYLNWYQQRPDGTVKLLIYYTSSLHSGVPSRFSGSGSGTDYSLTISNLEPEDIATYYCQQYSKLPWTFGGGTKLEIKR
notes: also called LC007 antibody; chimeric LC007

How the values were obtained:
[1] = target: T1, recombinant D3 domain of MCSP; assay: Biacore T100, antibody amine-coupled on CM5 chip, MCSP D3 as analyte, 1:1 model, 37 °C
Experimental: (§1) The monovalent binding affinities for the chimeric LC007 and the humanized variant M4-3 ML2 were determined using a Biacore assay. Briefly, the antibodies were chemically immobilized on a CM5 chip (Biacore) via amine-coupling (activation with EDC-NHS, coupling of 5000 RU for each antibody, deactivation with ethanolamine). The recombinant D3 domain of MCSP was used as analyte. The experiment was performed at 25° and 37° in HBS-EP+ running buffer on a Biacore T100. […] The surface was regenerated between injections with 10 mM glycine pH 2 for 30 s. The sensorgrams were fitted with the 1:1 binding model (with RI=0 and Rmax=local) to determine the Kd.

[2] = target: T1, recombinant D3 domain of MCSP; assay: Biacore T100, antibody amine-coupled on CM5 chip, MCSP D3 as analyte, 1:1 model, 25 °C
Experimental: as §1

[3] = target: T6, human MCSP (melanoma chondroitin sulfate proteoglycan) on melanoma cells (human, UniProt Q6UVK1 30-2322); assay: FACS titration on A375 melanoma cells, FITC anti-human IgG Fc secondary antibody
T6 construct: Endogenous MCSP of human melanoma cell lines; also called surface MCSP; native form of MCSP
Experimental: (§2) Binding activity was determined by the following method. Target cells were detached from culture flask with cell dissociation buffer, counted and checked for viability. Cells were resuspended and adjusted to 1.111×10⁶ (viable) cells/ml in PBS-0.1% BSA. 180 μl of this suspension were transferred to each well (200,000 cells/well) in a round bottom 96-well-plate, centrifuged for 4 min, at 400 g, and resuspended. 20 μl of antibody dilutions in PBS-0.1% BSA (from 10 μg/ml to 0.002 μg/ml) were added to each well. The samples were centrifuged for 4 min, at 400 g, and resuspended. Secondary antibody, FITC-conjugated AffiniPure F(ab′)2 fragment goat anti-human IgG Fcg Fragment Specific (Jackson Immuno Research Lab #109-096-098)), was added and the sample centrifuged for 4 min, at 400 g, and resuspended. Fluorescence was measured in flow cytometer (e.g. FACS Canto II). Antibody 9.2.27, described in Morgan A C Jr, Galloway D R, Reisfeld R A. Hybridoma. 1981; 1(1):27-36.; GenBank Accession Numbers: GI:20797193 and GI:20797189 for light and heavy chain respectively, was used as a reference (FIG. 2). Human melanoma cell-lines Colo38, A2058, and A375 were used. Giacomini et al. 1985 (for Colo38). Marquardt H, Todaro G J. J Biol Chem. 1982 May 10; 257(9):5220-5 (for A2058). Geiser M, Schultz D, Le Cardinal A, Voshol H, García-Echeverría C. Cancer Res. 1999 Feb. 15; 59(4):905-10 (for A375).

[4] = target: T2, cynomolgus MCSP D3 domain expression …; assay: flow cytometry titration on HEK-EBNA cells electroporated with the FLAG-tagged D3 domain construct
Description: (§3) An expression construct was generated that included the C-terminal part of the cynomolgus MCSP protein, a signal peptide for secretion and a N-terminal FLAG-tag (SEQ ID NO: 8) to test for crossreactivity towards the cynomolgus antigen. This domain was referred to as the D3 domain Tillet, F. et. Al, J. Biol. Chem. 272: 10769-10776 (1997). A similar construct was done for the human counterpart (SEQ ID NO: 9). An expression plasmid encoding for these two construct was electroporated into HEK-EBNA cells, and expression was confirmed with an anti-FLAG antibody. Binding of LC007 antibody was then tested by flow cytometry.

[5] = target: T3, human MCSP D3 domain expression …; assay: as above
Description: as §3

[6] = target: T6, human MCSP (melanoma chondroitin …); assay: FACS titration on Colo38 melanoma cells, FITC anti-human IgG Fc secondary antibody
Experimental: as §2

[7] = target: T6, human MCSP (melanoma chondroitin …); assay: FACS titration on A2058 melanoma cells, FITC anti-human IgG Fc secondary antibody
Experimental: as §2

[8] = target: T4, Construct 1, CSPG repeat 15 of human …; assay: FACS titration on HEK-EBNA cells transfected with the construct
[9] = target: T5, Construct 4, CSPG repeat 12-15 of human …; assay: as above

T6 sequence (Q6UVK1 30-2322 limits assumed): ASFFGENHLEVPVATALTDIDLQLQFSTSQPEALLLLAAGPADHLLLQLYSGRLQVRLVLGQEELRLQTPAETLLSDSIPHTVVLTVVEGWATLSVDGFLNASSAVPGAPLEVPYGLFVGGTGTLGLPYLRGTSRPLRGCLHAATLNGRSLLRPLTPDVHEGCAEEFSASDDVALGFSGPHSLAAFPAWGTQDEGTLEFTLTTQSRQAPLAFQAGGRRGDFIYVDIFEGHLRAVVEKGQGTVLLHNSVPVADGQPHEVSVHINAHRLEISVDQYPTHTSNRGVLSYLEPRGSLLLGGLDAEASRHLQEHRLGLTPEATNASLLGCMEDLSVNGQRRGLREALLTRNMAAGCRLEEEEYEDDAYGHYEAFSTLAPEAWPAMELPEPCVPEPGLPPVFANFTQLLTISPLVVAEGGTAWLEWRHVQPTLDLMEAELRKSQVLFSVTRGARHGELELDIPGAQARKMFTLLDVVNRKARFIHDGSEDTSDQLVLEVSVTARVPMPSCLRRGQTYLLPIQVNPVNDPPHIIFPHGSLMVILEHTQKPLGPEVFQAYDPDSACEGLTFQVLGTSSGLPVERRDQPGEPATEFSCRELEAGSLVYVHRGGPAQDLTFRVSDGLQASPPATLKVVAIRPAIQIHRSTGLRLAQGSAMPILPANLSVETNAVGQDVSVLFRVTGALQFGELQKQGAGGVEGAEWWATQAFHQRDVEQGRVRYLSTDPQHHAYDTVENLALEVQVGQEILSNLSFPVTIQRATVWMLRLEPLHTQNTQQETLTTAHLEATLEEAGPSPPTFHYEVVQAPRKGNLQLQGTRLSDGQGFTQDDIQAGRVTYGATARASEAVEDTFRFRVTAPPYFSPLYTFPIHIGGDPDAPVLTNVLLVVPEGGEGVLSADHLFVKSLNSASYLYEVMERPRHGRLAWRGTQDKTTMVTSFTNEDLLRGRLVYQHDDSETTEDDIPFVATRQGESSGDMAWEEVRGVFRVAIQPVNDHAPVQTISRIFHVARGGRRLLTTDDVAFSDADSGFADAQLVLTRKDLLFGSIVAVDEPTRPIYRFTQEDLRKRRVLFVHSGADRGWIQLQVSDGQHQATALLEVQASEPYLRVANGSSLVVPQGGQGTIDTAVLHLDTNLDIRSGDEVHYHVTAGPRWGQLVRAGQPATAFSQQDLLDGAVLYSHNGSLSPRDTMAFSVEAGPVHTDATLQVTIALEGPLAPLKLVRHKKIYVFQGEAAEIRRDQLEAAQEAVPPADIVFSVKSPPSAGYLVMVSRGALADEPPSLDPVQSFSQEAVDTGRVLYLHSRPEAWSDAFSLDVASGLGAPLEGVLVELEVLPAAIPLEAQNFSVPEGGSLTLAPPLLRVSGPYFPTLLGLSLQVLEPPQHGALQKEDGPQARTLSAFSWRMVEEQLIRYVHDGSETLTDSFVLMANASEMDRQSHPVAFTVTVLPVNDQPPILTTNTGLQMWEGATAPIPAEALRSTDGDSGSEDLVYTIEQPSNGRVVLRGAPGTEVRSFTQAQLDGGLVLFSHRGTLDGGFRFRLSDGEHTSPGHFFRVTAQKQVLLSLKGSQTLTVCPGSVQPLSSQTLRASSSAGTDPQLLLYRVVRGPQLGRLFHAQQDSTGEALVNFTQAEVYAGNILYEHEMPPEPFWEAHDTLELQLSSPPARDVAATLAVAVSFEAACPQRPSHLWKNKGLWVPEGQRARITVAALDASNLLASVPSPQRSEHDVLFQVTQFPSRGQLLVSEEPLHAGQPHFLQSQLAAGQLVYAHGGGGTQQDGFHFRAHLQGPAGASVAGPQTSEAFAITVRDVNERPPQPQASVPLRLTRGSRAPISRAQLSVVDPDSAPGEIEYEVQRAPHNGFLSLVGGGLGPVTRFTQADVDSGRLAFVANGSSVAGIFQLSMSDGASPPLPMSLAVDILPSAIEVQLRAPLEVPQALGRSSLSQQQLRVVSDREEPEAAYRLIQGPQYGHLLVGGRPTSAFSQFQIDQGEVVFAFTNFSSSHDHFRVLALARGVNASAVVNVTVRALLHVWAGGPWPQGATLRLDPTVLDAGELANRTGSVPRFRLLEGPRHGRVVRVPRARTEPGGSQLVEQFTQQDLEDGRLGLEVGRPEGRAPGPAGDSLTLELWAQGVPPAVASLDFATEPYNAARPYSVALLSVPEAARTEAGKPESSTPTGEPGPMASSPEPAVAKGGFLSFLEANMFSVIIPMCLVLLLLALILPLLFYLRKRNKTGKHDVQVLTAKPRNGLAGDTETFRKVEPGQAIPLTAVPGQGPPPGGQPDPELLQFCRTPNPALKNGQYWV

Binder	Kd [1] [nM]	Kd [2] [nM]	EC50 (read off the curve) [3] [µg/mL]	EC50 (read off the curve) [4] [µg/mL]	EC50 (read off the curve) [5] [µg/mL]	EC50 (read off the curve) [6] [µg/mL]	EC50 (read off the curve) [7] [µg/mL]	binding result [8]	EC50 (read off the curve) [9] [µg/mL]
B1	16.6	11.4							
B2	10.8	9.8	~0.05	~0.1	~0.08	~0.05	~0.03	no binding (tested: 5 ug/ml)	~0.3
